Here are results for 38 molecules from patent publication US20040248198A1 (ST JUDE CHILDREN S RESEARCH HOSPITAL, published 2004).

First the molecules themselves.
T1: His-tagged mArfN37 (mouse)
T1 construct: Captured on the SPR chip through a covalently attached Tetra-His antibody; also called His-mArfN37; His-tagged mArf37; not shown: thrombin-cleavable poly-His tag
T1 chain: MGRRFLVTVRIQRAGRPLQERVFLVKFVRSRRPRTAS

B1: 1-15 (peptide)
peptide: MGRRFLVTVRIQRAG
modifications: not fully specified
notes: also called mouse p19Arf library peptide, residues 1-15
B2: 230-244 (peptide)
peptide: EHSGDWLDQDSVSDQ
modifications: not fully specified
notes: also called Hdm2 library peptide, residues 230-244
B3: 300-314 (peptide)
peptide: ADYWKCTSCNEMNPP
modifications: not fully specified; cysteine pairing not given here
notes: also called Hdm2 library peptide, residues 300-314
B4: 295-309 (peptide)
peptide: PEISLADYWKCTSCN
modifications: not fully specified; cysteine pairing not given here
B5: 215-229 (peptide)
peptide: STGTPSNPDLDAGVS
modifications: not fully specified
notes: also called Hdm2 library peptide, residues 215-229
B6: 235-249 (peptide)
peptide: WLDQDSVSDQFSVEF
modifications: not fully specified
B7: 285-299 (peptide)
peptide: ESDTDSFEEDPEISL
modifications: not fully specified
notes: also called Hdm2 library peptide, residues 285-299
B8: 210-224 (peptide)
peptide: SSSSESTGTPSNPDL
modifications: not fully specified
notes: also called Hdm2 library peptide, residues 210-224
B9: 280-294 (peptide)
peptide: VYQAGESDTDSFEED
modifications: not fully specified
notes: also called Hdm2 library peptide, residues 280-294
B10: 330-344 (peptide)
peptide: LPEDKGKDKGEISEK
modifications: not fully specified
notes: also called Hdm2 library peptide, residues 330-344
B11: 255-269 (peptide)
peptide: DSEDYSLSEEGQELS
modifications: not fully specified
B12: 325-339 (peptide)
peptide: LRENWLPEDKGKDKG
modifications: not fully specified
notes: also called Hdm2 library peptide, residues 325-339
B13: 220-234 (peptide)
peptide: SNPDLDAGVSEHSGD
modifications: not fully specified
notes: also called Hdm2 library peptide, residues 220-234
B14: 260-274 (peptide)
peptide: SLSEEGQELSDEDDE
modifications: not fully specified
notes: also called Hdm2 library peptide, residues 260-274
B15: 315-329 (peptide)
peptide: LPSHCNRCWALRENW
modifications: not fully specified; cysteine pairing not given here
notes: also called Hdm2 library peptide, residues 315-329
B16: 265-279 (peptide)
peptide: GQELSDEDDEVYQVT
modifications: not fully specified
notes: also called Hdm2 library peptide, residues 265-279
B17: 310-324 (peptide)
peptide: EMNPPLPSHCNRCWA
modifications: not fully specified; cysteine pairing not given here
notes: also called Hdm2 library peptide, residues 310-324
B18: 245-259 (peptide)
peptide: FSVEFEVESLDSEDY
modifications: not fully specified
B19: 320-334 (peptide)
peptide: NRCWALRENWLPEDK
modifications: not fully specified
notes: also called Hdm2 library peptide, residues 320-334
B20: 335-349 (peptide)
peptide: GKDKGEISEKAKLEN
modifications: not fully specified
B21: 101-115 (peptide)
peptide: PGGLPGHAGGAAPGR
modifications: not fully specified
B22: 91-105 (peptide)
peptide: HSHPTRARRCPGGLP
modifications: not fully specified
notes: also called human p14Arf library peptide, residues 91-105
B23: 66-80 (peptide)
peptide: HDDGQRPSGGAAAAP
modifications: not fully specified
notes: also called human p14Arf library peptide, residues 66-80
B24: 51-65 (peptide)
peptide: RSQRLGQQPLPRRPG
modifications: not fully specified
notes: also called human p14Arf library peptide, residues 51-65
B25: 41-55 (peptide)
peptide: AAVALVLMLLRSQRL
modifications: not fully specified
notes: also called human p14Arf library peptide, residues 41-55
B26: 46-60 (peptide)
peptide: VLMLLRSQRLGQQPL
modifications: not fully specified
notes: also called human p14Arf library peptide, residues 46-60
B27: 106-120 (peptide)
peptide: GHAGGAAPGRGAAGR
modifications: not fully specified
notes: also called human p14Arf library peptide, residues 106-120
B28: 56-70 (peptide)
peptide: GQQPLPRRPGHDDGQ
modifications: not fully specified
notes: also called human p14Arf library peptide, residues 56-70
B29: 61-75 (peptide)
peptide: PRRPGHDDGQRPSGG
modifications: not fully specified
notes: also called human p14Arf library peptide, residues 61-75
B30: 31-45 (peptide)
peptide: TGEWAAPGAPAAVAL
modifications: not fully specified
notes: also called human p14Arf library peptide, residues 31-45
B31: 71-85 (peptide)
peptide: RPSGGAAAAPRRGAQ
modifications: not fully specified
notes: also called human p14Arf library peptide, residues 71-85
B32: 21-35 (peptide)
peptide: RVFVVHIPRLTGEWA
modifications: not fully specified
notes: also called human p14Arf library peptide, residues 21-35
B33: 26-40 (peptide)
peptide: HIPRLTGEWAAPGAP
modifications: not fully specified
notes: also called human p14Arf library peptide, residues 26-40
B34: 96-110 (peptide)
peptide: RARRCPGGLPGHAGG
modifications: not fully specified
notes: also called human p14Arf library peptide, residues 96-110
B35: 116-130 (peptide)
peptide: GAAGRARCLGPSARG
modifications: not fully specified
notes: also called human p14Arf library peptide, residues 116-130
B36: 76-90 (peptide)
peptide: AAAAPRRGAQLRRPR
modifications: not fully specified
notes: also called human p14Arf library peptide, residues 76-90
B37: 81-95 (peptide)
peptide: RRGAQLRRPRHSHPT
modifications: not fully specified
notes: also called human p14Arf library peptide, residues 81-95
B38: 111-125 (peptide)
peptide: AAPGRGAAGRARCLG
modifications: not fully specified
notes: also called human p14Arf library peptide, residues 111-125

Where no end group is shown, it is not given here.

T2 sequence (Q00987 210-304): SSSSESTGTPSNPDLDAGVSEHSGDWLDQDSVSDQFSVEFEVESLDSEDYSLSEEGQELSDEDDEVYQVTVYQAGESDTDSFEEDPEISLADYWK

One assay has as its target T2, His-tagged Hdm2 210-304 (human, UniProt Q00987 210-304).
T2 construct: not shown: thrombin-cleavable poly-His tag from pET28a
Description: SPR (Biacore), His-tagged Hdm2 210-304 captured by anti-His antibody, mouse Arf peptide as analyte, reference cell subtracted. As to the method: (§1) Surface Plasmon Resonance. Binding studies were performed using a Biacore 3000 surface plasmon resonance (SPR) instrument (Biacore, Inc.). A Tetra-His™ Antibody (Qiagen, Inc.; Cat. #34670) was covalently attached to a carboxymethylated gold surface (C-1 chip; Biacore, Inc.). The carboxymethyl groups on the surface were activated with N-ethyl-N-(3-dimethylaminopropyl) carbodiimide (EDC) and N-hydroxysuccinimide (NHS) and the antibody was attached at pH 7.4 in 20 mM sodium phosphate buffer, 150 mM NaCl (PBS). Reactive sites remaining on the surface were blocked by reaction with ethanolamine. The His-tagged ligand was attached to the antibody by injecting a […] solution of the ligand in 10 mM HEPES, 150 mM NaCl, pH 7.4 (HBS-N buffer, Biacore) at a flow rate of 10 μL/Min through the flow cell. A reference cell was prepared similarly except that no His-tagged ligand was added. Binding was measured by flowing the non-His-tagged analyte through the reference and ligand-containing flow cells in sequence. Prior to injection of ligands, the chip surfaces were equilibrated in HBS-N buffer. Changes in the SPR response due to solvent differences and the injection process were monitored by injection of HBS-N buffer alone. Regeneration of the chip surface to remove bound analyte and ligand was accomplished by two 100 μL injections of 10 mM glycine, pH 2.0 through both flow cells. Data reported is-the difference in SPR signal between the flow cell containing analyte and the reference cell. Duplicate injections were made and the SPR response values reported are the average of these two injections.
(§2) Two libraries of peptides 15 amino acids in length were synthesized based on the sequence of exon 1β of mouse p19^Arf and the entire sequence of human p14^Arf. The sequence for the first peptide in each library corresponded to the first 15 amino acids of the protein sequences. […] This approach yielded two libraries of overlapping peptides spanning mouse p19^Arf residues 1-64 and human p14^Arf residues 1-132. The ability of these peptides to bind Hdm2 fragments was determined using the surface plasmon resonance (SPR) technique with a Biacore 3000 instrument.
(In general: SPR reads the build-up and loss of mass on a sensor chip optically.)
With B1, the binding result is recorded as “binds”.

In the next assay the target is T1, His-tagged mArfN37. The assay is described as follows: SPR (Biacore), His-tagged mArfN37 captured by anti-His antibody, Hdm2 peptide as analyte, reference cell subtracted. The procedure: as §1
A similar approach using short synthetic peptides and SPR was used to map the segments of Hdm2 that bind mArfN37 (FIG. 5c). […] The first of these as Arf-binding segment is termed “H1” and the second is termed segment “H2”.
Take B2: the binding result is recorded as “no binding (tested: not given)”.
Still for that read-out and setting: for B3 the value was “no binding (tested: not given)”.
The same measure, in the same setting: the entry for B4 is “no binding (tested: not given)”; for B5 it is “no binding (tested: not given)”.
On the same count and under the same terms, for B6 the value was “binds”.
As for B7, the binding result is recorded as “no binding (tested: not given)”.
As for B8, the binding result is given as “no binding (tested: not given)”.
On the same count and under the same terms, the entry for B9 is “no binding (tested: not given)”; for B10 it is “no binding (tested: not given)”.
The same measure, in the same setting: the entry for B11 is “no binding (tested: not given)”; for B12 it is “no binding (tested: not given)”; for B13 it is “no binding (tested: not given)”.
The same measure, in the same setting: for B14 the value was “no binding (tested: not given)”; for B15, “no binding (tested: not given)”; for B16, “no binding (tested: not given)”.
As to B17, the binding result is “no binding (tested: not given)”.
Turning to B18, the binding result is listed as “binds”.
On the same count and under the same terms, the entry for B19 is “no binding (tested: not given)”; for B20 it is “no binding (tested: not given)”.

Another assay deals with T2, His-tagged Hdm2 210-304. The assay is described as follows: SPR (Biacore), His-tagged Hdm2 210-304 captured by anti-His antibody, human Arf peptide as analyte, reference cell subtracted. As to the method:
as §1, §2
For B21, the binding result was “no binding (tested: not given)”.
In the case of B22, the binding result is listed as “no binding (tested: not given)”.
On the same count and under the same terms, the entry for B23 is “no binding (tested: not given)”; for B24 it is “no binding (tested: not given)”; for B25 it is “no binding (tested: not given)”.
Still for that read-out and setting: the entry for B26 is “no binding (tested: not given)”.
Same read-out and setting: the entry for B27 is “no binding (tested: not given)”; for B28 it is “no binding (tested: not given)”; for B29 it is “no binding (tested: not given)”.
For the molecule B30, the binding result is “no binding (tested: not given)”.
B31: the binding result is recorded as “no binding (tested: not given)”.
Still for that read-out and setting: for B32 the value was “no binding (tested: not given)”; for B33, “no binding (tested: not given)”; for B34, “no binding (tested: not given)”.
Turning to B35, the binding result is given as “no binding (tested: not given)”.
As for B36, the binding result was “no binding (tested: not given)”.
B37: the binding result was “no binding (tested: not given)”.
For the molecule B38, the binding result is reported as “no binding (tested: not given)”.
